Laboratory results: patent US20210269492A1

Molecular target: Piromyces ScaA fragment (Piromyces)
Assay: SPR equilibrium analysis

| Kd | Substance |
| --- | --- |
| 700 nM | P. finnis single dockerin domain |
| 2000 nM | W28F dockerin mutant |
